Molecular target: T1, E. coli SufE (E. coli), P76194
T1 chain: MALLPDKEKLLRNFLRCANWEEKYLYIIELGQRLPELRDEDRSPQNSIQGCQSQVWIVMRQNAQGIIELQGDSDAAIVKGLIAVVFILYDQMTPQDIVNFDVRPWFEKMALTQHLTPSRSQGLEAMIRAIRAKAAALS
Experiment: cross-linking; disulfide-linked species after treatment with 1 mM H2O2; SDS-PAGE under reducing (+DTT) and non-reducing (-DTT) conditions
Conditions: remark: other sources report otherwise

percent of total SufE as disulfide-bonded homodimer: 34%
B1: E. coli SufE, P76194 1-138 (natural protein)
chain: T1 chain

From paper PMC10216065
